Columns and labels:
[1] = target: T1, human CD26-derived 13 mer peptide 49 (human); experiment: peptide microarray
T1 construct: also called TEERJPNNTQWVT
T1 peptide: TEERIPNNTQWVT
Protocol: The overnight incubation was followed by three washings with each of PBS buffer pH 7.5 and water. The microarrays were then scanned using ArrayWorx-Microarray Scanner.
The SPOT recognition software package ArrayPro was used for data analysis. The mean of signal intensities from 3 identical subarrays on each microarray image was used for data evaluation.

[2] = target: T2, Purified recombinant human CD26 (rhDipeptidyl peptidase IV), R&D Systems CAT #1180-SE (human, UniProt P27487 29-766); experiment: SPR (Biacore), IgG1
T2 construct: Bought recombinant protein; also called hu-CD26; soluble human CD26
Protocol: Fabs produced in E. coli as described below were diluted in PBS in a concentration of ˜0.5 μM for the assay. A typical recording included a 3 minute period of injection of the Fab followed by a period of 15 minutes of dissociation, and analysis was performed based on the raw data of the binding curves accordingly.
Analyses thereof were performed using Biacore® as described in Example 1, excepting the binding partners were the rhuMAbs noted above.

T2 sequence (P27487 29-766 limits assumed): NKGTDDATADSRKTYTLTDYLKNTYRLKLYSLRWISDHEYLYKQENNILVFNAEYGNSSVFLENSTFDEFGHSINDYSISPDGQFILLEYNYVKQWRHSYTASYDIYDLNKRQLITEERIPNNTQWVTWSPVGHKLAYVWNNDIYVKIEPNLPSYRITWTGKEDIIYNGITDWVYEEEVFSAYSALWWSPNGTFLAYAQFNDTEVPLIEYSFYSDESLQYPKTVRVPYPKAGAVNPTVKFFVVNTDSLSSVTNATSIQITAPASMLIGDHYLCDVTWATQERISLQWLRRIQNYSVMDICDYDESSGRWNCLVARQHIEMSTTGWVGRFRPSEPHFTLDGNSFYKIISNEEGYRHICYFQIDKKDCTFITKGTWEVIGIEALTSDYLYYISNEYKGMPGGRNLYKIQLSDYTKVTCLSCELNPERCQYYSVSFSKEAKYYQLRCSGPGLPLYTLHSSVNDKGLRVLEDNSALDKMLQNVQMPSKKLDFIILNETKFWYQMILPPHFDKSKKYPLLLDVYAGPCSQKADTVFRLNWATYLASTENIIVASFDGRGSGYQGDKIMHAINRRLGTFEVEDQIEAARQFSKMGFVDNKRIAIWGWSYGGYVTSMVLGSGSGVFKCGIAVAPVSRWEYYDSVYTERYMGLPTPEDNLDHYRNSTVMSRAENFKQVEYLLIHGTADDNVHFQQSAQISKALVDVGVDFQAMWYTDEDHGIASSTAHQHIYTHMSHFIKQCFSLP

B1: rhuMAb 411 (antibody, human IgG1, kappa, V domains shown)
VH: EVQLVESGAGVKQPGGTLRLTCTASGFSLTTYGVHWVRQAPGKGLEWVGVIWGDGRTDYDAAFMSRVTISKDTSKSTVYLQMNSLRAEDTAVYYCMRNRHDWFDYWGQGTTVTVSS
VL: DILLTQSPSSLSATPGERATITCRASQGIRNNLNWYQQKPGQAPRLLIYYSSNLQSGVPSRFSGSGSGTDFTLTISRLQPEDVAAYYCQQSIKLPFTFGSGTKVEIKR
notes: also called X411
Mean Signal Value [1]: 0.962 | -fold against rhuMAb 409 [2]: 3.7 | Kd [2]: 0.22 nM
